Our source for the pKd values is PMC9482650, “Quantitative fragmentomics allow affinity mapping of interactomes” (Nature Communications, 2022).

T1: DFNB31_3, Q9P202
T1 sequence (Q9P202 811-907, limits assumed, looked up): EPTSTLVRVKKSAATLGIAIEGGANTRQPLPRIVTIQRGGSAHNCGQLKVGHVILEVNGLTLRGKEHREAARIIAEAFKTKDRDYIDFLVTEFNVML

The first assay has as its target T1, DFNB31_3, Q9P202. Briefly: holdup assay. Particulars: modified: phospho on T at position -2 from the C-terminal residue. The arrangement: key: below the threshold = too weak to quantify, mostly under pKd 3.1 to 4.
What is called pKd is the negative decadic logarithm of the Kd, by convention in mol/L. Turning to RLQRRRETQV [HPV18-E6_-2P, P06463], the pKd is 3.9.

The same assay, now with this note: plain residues with an end cap or a label only (N-terminal biotin on a linker: ado-ado).
FNSYSLTGYV [CLDN2, P57739]: the pKd entry is given as “below the threshold”.

On to SGSLKLMTTV [DACT1, Q9NYF0], for which the pKd worked out at 4.03.

In turn, YRLAQESGLV [ABCC6, O95255] gave a pKd of 3.94.

Turning to QGLAERISVL [PRKD2, Q9BZL6], the pKd is 4.26.

VDSTVKVWTC [TRAF7, Q6Q0C0]: the pKd entry is listed as “below the threshold”.

SNAGNTATKA [NOSTRIN, Q8IVI9]: the pKd entry is given as “below the threshold”.

For the molecule PRAEAEDSFL [PDGFRB, P09619], the pKd result is on record as “below the threshold”.

In the case of TLPRKRMSSI [GPRC6A, Q5T6X5], the pKd result is “below the threshold”.

For EALLQMESVA [CAVIN3, Q969G5], the pKd result is listed as “below the threshold”.

On to VYPNAKVELV [PDLIM4_iso2, P50479;P50479-1], for which the pKd result is on record as “below the threshold”.

As to LKVPPEERLI [CRB2, Q5IJ48], the pKd result is “below the threshold”.

Turning to KSGKQTMLVV [TRIM29, Q14134;Q14134-2], the pKd entry is “below the threshold”.

Take DDPSTAETVL [ABCA7, Q8IZY2]: the pKd was determined as 3.63.

KKAPTNEFYA [SDC4, P31431] registered a pKd of 3.85.

For TASPAKETSF [SLC2A7, Q6PXP3], the pKd stood at 3.88.

As to LSEFKAMDSI [CTNNA1, P35221], the pKd result is listed as “below the threshold”.

For the molecule QSLNRMEYIV [JAG1, P78504], the pKd was found to be 3.86.

YYKRPVQEWV [MMP24, Q9Y5R2] registered a pKd of 3.63.

In the case of PEYLGLDVPV [ERBB2, P04626], the pKd result is given as “below the threshold”.

IPLDGETEEL [MYOZ1, Q9NP98]: the pKd entry is recorded as “below the threshold”.

In the case of DTTVPESEDL [MYOZ2, Q9NPC6], the pKd entry is recorded as “below the threshold”.

On to VRNLPESEEL [MYOZ3, Q8TDC0], for which the pKd entry was “below the threshold”.

In the case of KKMPSIESDV [GRIN2A, Q12879], the pKd result was “below the threshold”.

SKENVQETQI [LRRC4B, Q9NT99] registered a pKd of 3.47.

In the case of QKNRKAQEDL [CES3, Q6UWW8], the pKd came out at 4.05.

Consider RKPKPSSSCC [RAB9A, P51151], for which the pKd was found to be 3.9.

With QGPVETESVV [SLC45A4, Q5BKX6], the pKd entry is recorded as “below the threshold”.

Take PDGQCTVTEV [RNF146, Q9NTX7]: the pKd stood at 3.99.

Consider TACCHSETVV [TGFA, P01135], for which the pKd entry is “below the threshold”.

Molecule QHKTQLQTLI [BPIFA2, Q96DR5] gave a pKd of 4.8.

Regarding PAPSSGKDYV [CLDN1, O95832], the negative-log Kd (pKd) entry is “below the threshold”.

For the molecule NLSIEKETKL [ASNSD1, Q9NWL6], the pKd amounted to 3.52.

In turn, GQEEQVTTRL [TRPC5, Q9UL62] displayed a pKd of 3.8.

Turning to QMNQTLPVQV [EPHB3, P54753], the pKd result is given as “below the threshold”.

Consider EVNETDDTKM [KCNJ1, P48048], for which the pKd result is on record as “below the threshold”.

As for HSGYRLNDYV [CLDN14, O95500], the pKd entry was “below the threshold”.

In turn, SAAKVLTSMC [GHRHR, Q02643] returned a pKd of 4.09.

On to SKSNFGSEPL [KIF17, Q9P2E2], for which the pKd result was “below the threshold”.

In the case of YLEPVLSSEL [ATP2A2, P16615;P16615-3], the pKd came to 4.03.

As to QSPANIYYKV [EFNB1, P52799], the negative-log Kd (pKd) entry is “below the threshold”.

In the case of PKRSFIESNV [TANC1, Q9C0D5], the pKd entry is given as “below the threshold”.

In turn, VKPQVSESKL [ACOT8, O14734] had a pKd of 3.71.

For the molecule QPCFNKLFPL [LPXN, O60711], the pKd entry is “below the threshold”.

On to EVEEFPETSV [TRPV3, Q8NET8], for which the pKd entry is listed as “below the threshold”.

In turn, QSARLWETSI [ADAM22, Q9P0K1] gave a pKd of 4.2.

On to PRISRSQSEL [CCDC134, Q9H6E4], for which the pKd was 3.48.

Take VNKSKLLTDV [KCNA1, Q09470]: the pKd is 3.56.

For the molecule NHSSSPETTA [TRMT13, Q9NUP7], the pKd entry was “below the threshold”.

ETQVTAETVI [TMEM225B, P0DP42] yielded a pKd of 4.03.

GNSVLKSTQF [SLC22A12, Q96S37] had a negative logarithm of the Kd (pKd) of 3.56.

For DDENIRTSDV [PLEKHA2, Q9HB19], the pKd result was “below the threshold”.

For the molecule MLSKQSESAI [FLVCR1, Q9Y5Y0], the pKd entry is “below the threshold”.

Take RHGSCVETSL [TMEM151B, Q8IW70]: the pKd entry was “below the threshold”.

Take SAKVRTVTSV [RASL11B, Q9BPW5]: the pKd result is “below the threshold”.

In the case of DDEDRLVIEI [ZNF831, Q5JPB2], the pKd amounted to 4.12.

Consider SSALYGESDL [ACTN2, P35609], for which the pKd turned out to be 3.64.

TSQESEDTYL [TBC1D10A, Q9BXI6]: the pKd was found to be 4.

For HLRARKSEWV [GJD4, Q96KN9], the pKd result is “below the threshold”.

Take TSSMRGMDAV [RSRC2, Q7L4I2]: the pKd entry is reported as “below the threshold”.

Molecule TPPAAKKSRI [BAZ1A, Q9NRL2] registered a pKd of 4.08.

Take LPHPHSTTRV [NLGN2, Q8NFZ4]: the pKd entry is “below the threshold”.

In turn, LPHGHSTTRV [NLGN4X, Q8N0W4] returned a pKd of 3.96.

Take TKGPRGPTRV [SAPCD1, Q5SSQ6]: the pKd entry is on record as “below the threshold”.

In turn, EKKTLIGIKL [GOT1L1, Q8NHS2] returned a pKd of 4.02.

For the molecule AKPSRISTVV [IQSEC2, Q5JU85], the pKd entry is “below the threshold”.
